Data published in paper PMC7772773, “HTR6 and SSTR3 ciliary targeting relies on both IC3 loops and C-terminal tails” (Life Science Alliance, 2020).

Tests used:
[1] = target: T1, CD8α (aa 1–206)-(SSTR3-CT)-BioID2-HA ( | mouse, UniProt P01732 22-206; P30935 326-428); assay: proximity labelling; BioID2 proximity biotinylation in HEK293T cells cotransfected with EGFP-TEV-Stag-TULP3 (or S-tagged TULP3-NTD or -CTD) and CD8α(1–206)-(IC3 or CT of a GPCR)-BioID2-HA; 50 μM biotin for the last 16 h; TULP3 purified from lysate by tandem purification (GFP-Trap, TEV digestion, S-protein agarose); its biotinylation detected with NeutrAvidin-HRP, relative to total TULP3 and normalised to the β2AR …; conditions: partners not purified
T1 construct: signal peptide in the construct; CD8α, extracellular and transmembrane regions, aa 1–206; somatostatin receptor 3 (SSTR3), mouse, C-terminal tail (SSTR3-CT, aa 326–428); source: HEK293T, cotransfected, in cells; not shown: BioID2, C-terminal, kept; HA, C-terminal, kept

[2] = target: T2, CD8α (aa 1–206)-(HTR6-CT)-BioID2-HA ( | mouse, UniProt P01732 22-206; Q9R1C8 326-440); assay: as above; conditions: partners not purified
T2 construct: signal peptide in the construct; CD8α, extracellular and transmembrane regions, aa 1–206; serotonin receptor 6 (HTR6), mouse, C-terminal tail (HTR6-CT, aa 326–440); also called HTR6-CT(WT); wild-type HTR6-CT; source: HEK293T, cotransfected, in cells; not shown: BioID2, C-terminal, kept; HA, C-terminal, kept
T2 sequence (P01732 22-206, tags or fused parts left off): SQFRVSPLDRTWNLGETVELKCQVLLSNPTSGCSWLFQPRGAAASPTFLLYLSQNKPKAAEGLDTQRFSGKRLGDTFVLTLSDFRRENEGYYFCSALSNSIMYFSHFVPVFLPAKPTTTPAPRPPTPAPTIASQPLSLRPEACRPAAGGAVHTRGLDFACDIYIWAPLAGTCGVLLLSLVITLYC

T1 sequence (P01732 22-206, tags or fused parts left off): as above

B1: EGFP-TEV-Stag-TULP3 (natural protein, UniProt O75386 1-442, looked up)
chain: MEASRCRLSPSGDSVFHEEMMKMRQAKLDYQRLLLEKRQRKKRLEPFMVQPNPEARLRRAKPRASDEQTPLVNCHTPHSNVILHGIDGPAAVLKPDEVHAPSVSSSVVEEDAENTVDTASKPGLQERLQKHDISESVNFDEETDGISQSACLERPNSASSQNSTDTGTSGSATAAQPADNLLGDIDDLEDFVYSPAPQGVTVRCRIIRDKRGMDRGLFPTYYMYLEKEENQKIFLLAARKRKKSKTANYLISIDPVDLSREGESYVGKLRSNLMGTKFTVYDRGICPMKGRGLVGAAHTRQELAAISYETNVLGFKGPRKMSVIIPGMTLNHKQIPYQPQNNHDSLLSRWQNRTMENLVELHNKAPVWNSDTQSYVLNFRGRVTQASVKNFQIVHKNDPDYIVMQFGRVADDVFTLDYNYPLCAVQAFGIGLSSFDSKLACE
notes: TULP3, ciliary trafficking adapter; the printed limit of its C-terminal domain (aa 184–442) points to a protein of 442 aa; A TEV site lies between EGFP and the S-tag; EGFP is cut off only after the first immunoprecipitation, that is after the labelling in cells; also called S-tagged TULP3; not shown: EGFP, N-terminal, kept; S-tag, N-terminal, kept
fold biotinylated TULP3 over β2AR-CT control [1]: 20 fold | fold biotinylated TULP3 over β2AR-CT control [2]: 4 fold
